± gives the standard deviation of the averaged measurements.
System: ATP
Assay: switch fluorescence ratio, 500 uM ATP over buffer (Cy3 cluster intensity, sum of 5 cycles each) (fold (ratio)); higher = stronger signal-on switching upon ATP binding; sequences stand for … in TCGTCGGCAGCGTCAGATGTGTATAAGAGACAGTTTTTTTTTTTTTTTTTTTTTTTTT…TC
Details: aptamer strand: ATP DNA aptamer (quencher-CACCTGGGGGAGTATTGCGGAGGAAGG + anchor), 100 nM annealed; ATP concentration: 500 uM
Procedure, shortened: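 The quencher-labelled ATP aptamer, at 100 nM, was annealed to Cy3-labelled switching-strand clusters on a modified Illumina MiSeq flow-cell. The clusters were imaged in selection buffer, then after 15 min with 500 uM ATP at 22 °C, and this buffer/ATP cycle ran five times with NaOH stripping and re-annealing between runs. Per-cluster fluorescence ratios, summed target-cycle over summed buffer-cycle Cy3 intensity, were averaged per switch-domain sequence. Clusters outside 100-1000 RFU were excluded.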
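Also: ATP exposure 15 min at 22 °C before imaging.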

Row | Sequence | switch fluorescence ratio
1 | CGTCGGGGAT | 1 ± 0.037
2 | CATTTGGGCT | 1.03 ± 0.039
3 | CACACGGTTC | 1.02 ± 0.028
4 | CGGGGCTGAA | 0.991 ± 0.0089
5 | CTGGGGGCAA | 3.2 ± 0.68
6 | GGGTGGAGGG | 0.973 ± 0.012
7 | AGAGTGTTGG | 0.985 ± 0.034
8 | GTTAAACGTT | 1 ± 0.014
9 | ATTTCCTGTG | 1.042 ± 0.0014
10 | TGTGAGAGGT | 0.995 ± 0.012
11 | ACGGGAGTGC | 1.03 ± 0.046
12 | CGATGTGCGG | 1.03 ± 0.062
13 | TTCAGCTTTT | 0.984 ± 0.037
14 | AGTGGAAGCA | 0.972 ± 0.031
15 | TTAGGCGCCG | 0.994 ± 0.054
16 | TTGAGGCCTT | 1.01 ± 0.022
17 | GTTTTACATT | 1.02 ± 0.021
18 | CATTAATCAT | 0.995 ± 0.048
19 | TACCCCGGTA | 1.04 ± 0.035
20 | TGACGAGCGA | 2.25 ± 0.24
21 | TCGGATAGGG | 1.04 ± 0.071
22 | TTTTTTGAAA | 1 ± 0.054
23 | TTTAGCAATG | 1.64 ± 0.34
24 | TAGGTAAATC | 1.01 ± 0.024
25 | AGTGTTAGAC | 1.012 ± 0.0048

Row | Sequence | switch fluorescence ratio
26 | AGTTGTCCAT | 0.9767 ± 0.0079
27 | GGATTGGGTG | 1.04 ± 0.09
28 | TGGGGGCTAT | 0.989 ± 0.053
29 | GGGAGCGCGT | 1.02 ± 0.056
30 | ACGGTGTGCG | 1 ± 0.058
31 | TTATTTTAAA | 1.01 ± 0.024
32 | GAAGGACGGG | 1 ± 0.025
33 | ATTTACGAGT | 0.981 ± 0.045
34 | TTTAACATCA | 0.984 ± 0.047
35 | ACACCCAAGT | 1.21 ± 0.14
36 | TTTGTAGATC | 1.06 ± 0.066
37 | GTTTGTAGAG | 0.993 ± 0.026
38 | ATCATTTAAT | 1.009 ± 0.0054
39 | AGGTCTAGTT | 0.9995 ± 0.0089
40 | ATTGGCGTGC | 0.987 ± 0.03
41 | CCGTGTTTCT | 0.9916 ± 0.0033
42 | AGTGCGTGCG | 0.979 ± 0.059
43 | GTTGCAGTTG | 1.07 ± 0.077
44 | GGTGGAGCTA | 1.03 ± 0.015
45 | CGGATTCGAG | 0.98 ± 0.035
46 | CATTGTGGGT | 0.975 ± 0.019
47 | ACCCTGTTGG | 1.01 ± 0.029
48 | ACTAAGGGAG | 1.01 ± 0.005
49 | TATCATGTTG | 0.9987 ± 0.0047
50 | GTTACTTGGT | 1.01 ± 0.034

Row | Sequence | switch fluorescence ratio
51 | TATGTGCTGT | 0.983 ± 0.011
52 | TGGGGTTGTC | 0.993 ± 0.034
53 | TTTGACAGCG | 1.02 ± 0.066
54 | AGGACGTTGG | 0.963 ± 0.034
55 | TTCAAGGATA | 0.986 ± 0.05
56 | ATAGTCAAAG | 0.998 ± 0.034
57 | TGAAAAAAAA | 0.971 ± 0.025
58 | AACGTTGGAG | 1.02 ± 0.019
59 | GACTACATTA | 1.03 ± 0.025
60 | AACTGCAATT | 2 ± 1.1
61 | CGTATTTTT | 0.99 ± 0.018
62 | GTGGGAGG | 1.02 ± 0.025
63 | GGGTAGGGCC | 1.026 ± 0.0023
64 | GGATTAGGTC | 1.02 ± 0.019
65 | TTCATATGCG | 0.995 ± 0.016
66 | GATACATTAT | 0.998 ± 0.028
67 | TTGGGGGAAA | 1 ± 0.02
68 | CTCATCGGCT | 1.03 ± 0.03
69 | TATAGGAGGT | 0.987 ± 0.062
70 | GGGGGACCTA | 0.946 ± 0.026
71 | GGTATAAAGG | 0.996 ± 0.014
72 | GGAAAGGTTT | 1.01 ± 0.064
73 | TGGGTGTTAA | 0.974 ± 0.055
74 | AACTTGGTGG | 0.944 ± 0.033
75 | TAATTGGGTT | 1 ± 0.019

Row | Sequence | switch fluorescence ratio
76 | CCGTGTCATT | 1.013 ± 0.0023
77 | ATGGAGGTAG | 0.995 ± 0.027
78 | TCAGCGTACG | 1.01 ± 0.014
79 | GGGGAAATTG | 0.983 ± 0.019
80 | GACGCGCGTA | 1.01 ± 0.027
81 | TCGGTTTTTA | 1 ± 0.043
82 | TAACTTACAT | 1.19 ± 0.018
83 | TCGATGGGGA | 1.02 ± 0.015
84 | AAGGGGGAGA | 0.994 ± 0.03
85 | TTCTTAGATG | 1.016 ± 0.0088
86 | ACGTAGAATG | 1.06 ± 0.015
87 | GATCAGGTCT | 0.987 ± 0.032
88 | GGGAATTAAT | 1.04 ± 0.023
89 | CAATCTGCGC | 1.07 ± 0.043
90 | ATTAAGTTGG | 0.982 ± 0.022
91 | ACAGTTATTA | 1.03 ± 0.028
92 | AACAGGCGGG | 0.993 ± 0.027
93 | TTGGGCCCCT | 0.9967 ± 0.0024
94 | GTGGGACCTT | 1.06 ± 0.069
95 | TTTGCCTCAA | 1.01 ± 0.011
96 | AGGACGGTAG | 0.992 ± 0.058
97 | TTTCAAGTGC | 1.03 ± 0.064
98 | TTGGGTTCCC | 1.01 ± 0.05
99 | ACTTTAGCGG | 0.99001 ± 0.0002
100 | CGTGGGTTGT | 0.9956 ± 0.0018

From the supplement of paper PMC10126150
